The record followed here is the supplement of paper PMC5998384.

Series [1] deals with HeLa Kyoto. The series is described as follows: solubility change mitosis vs G1/S (difference of NP-40 vs SDS log2 ratios) (log2 ratio difference); higher = more soluble in mitosis.
For series [2], the system named is HeLa Kyoto. Kind of series: thermal stability score vs G1/S (z-score of summed log2 fold changes over temperatures); higher = more thermally stable than in G1/S.
For series [3], the system named is HeLa Kyoto. Kind of series: solubility in G1/S (NP-40 vs SDS abundance) (log2 ratio); higher = more soluble. The following applies: cell cycle stage: G1/S.
In series [4] the test system is HeLa Kyoto. Kind of series: melting temperature (median over replicates), in situ; higher = more thermally stable.
[5] abbreviates: cell cycle stage: early G1 (4.5 h after nocodazole release).
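For melting temperature (median over replicates), in situ in this document: HeLa Kyoto cells synchronized by double thymidine or nocodazole block, proteins quantified by TMT10plex mass spectrometry, three independent biological replicates.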
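For solubility change mitosis vs G1/S (difference of NP-40 vs SDS log2 ratios) in this document: synchronized HeLa Kyoto cells (double thymidine block for G1/S, nocodazole release for mitosis), protein amounts in NP-40 versus SDS lysates quantified by mass spectrometry, three biological replicates.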
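For solubility in G1/S (NP-40 vs SDS abundance) in this document: HeLa Kyoto cells arrested at G1/S by double thymidine block, proteins quantified by TMT10plex mass spectrometry in mild NP-40 versus SDS extracts, three biological replicates.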
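For thermal stability score vs G1/S (z-score of summed log2 fold changes over temperatures) in this document: synchronized HeLa Kyoto cells, proteins quantified by TMT10plex mass spectrometry, three biological replicates, mitosis taken 0.5 h after nocodazole release, G1/S directly after double thymidine block.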

Turning to “MKYILVTGGVISGIGKGIIASSIGTILKSCGLRVTAIKIDPYINIDAGTFSPYEHGEVFVLNDGGEVDLDLGNYERFLDINLYKDNNITTGKIYQHVINKERRGDYLGKTVQVVPHITDAVQEWVMNQAKVPVDGNKEEPQICVIELGGTIGDIEGMPFVEAFRQFQFKAKRENFCNIHVSLVPQLSATGEQKTKPTQNSVRALRGLGLSPDLIVCRSSTPIEMAVKEKISMFCHVNPEQVICIHDVSSTYRVPVLLEEQSIVKYFKERLHLPIGDSASNLLFKWRNMADRYERLQKICSIALVGKYTKLRDCYASVFKALEHSALAINHKLNLMYIDSIDLEKITETEDPVKFHEAWQKLCKADGILVPGGFGIRGTLGKLQAISWARTKKIPFLGVCLGMQLAVIEFARNCLNLKDADSTEFRPNAPVPLVIDMPEHNPGNLGGTMRLGIRRTVFKTENSILRKLYGDVPFIEERHRHRFEVNPNLIKQFEQNDLSFVGQDVDGDRMEIIELANHPYFVGVQFHPEFSSRPMKPSPPYLGLLLAATGNLNAYLQQGCKLSSSDRYSDASDDSFSEPRIAELEIS [CTPS2]”, the “solubility change mitosis (log2)” value in series [1] was -0.0719. Also, the thermal stability score in series [2] (setting [5]) was -2.15; in series [2] (cell cycle stage: mitosis), -1.98. For the same sequence, in series [3], the “solubility in G1/S (log2)” value turned out to be 0.0287. Also, the melting temperature in series [4] (cell cycle stage: G1/S) was 57.1 °C; in series [4] (cell cycle stage: mitosis), 57.2 °C.

“MLAFAARTVVKPLGFLKPFSLMKASSRFKAHQDALPRLPVPPLQQSLDHYLKALQPIVSEEEWAHTKQLVDEFQASGGVGERLQKGLERRARKTENWLSEWWLKTAYLQYRQPVVIYSSPGVMLPKQDFVDLQGQLRFAAKLIEGVLDFKVMIDNETLPVEYLGGKPLCMNQYYQILSSCRVPGPKQDTVSNFSKTKKPPTHITVVHNYQFFELDVYHSDGTPLTADQIFVQLEKIWNSSLQTNKEPVGILTSNHRNSWAKAYNTLIKDKVNRDSVRSIQKSIFTVCLDATMPRVSEDVYRSHVAGQMLHGGGSRLNSGNRWFDKTLQFIVAEDGSCGLVYEHAAAEGPPIVTLLDYVIEYTKKPELVRSPLVPLPMPKKLRFNITPEIKSDIEKAKQNLSIMIQDLDITVMVFHHFGKDFPKSEKLSPDAFIQMALQLAYYRIYGQACATYESASLRMFHLGRTDTIRSASMDSLTFVKAMDDSSVTEHQKVELLRKAVQAHRGYTDRAIRGEAFDRHLLGLKLQAIEDLVSMPDIFMDTSYAIAMHFHLSTSQVPAKTDCVMFFGPVVPDGYGVCYNPMEAHINFSLSAYNSCAETNAARLAHYLEKALLDMRALLQSHPRAKL [CRAT]”: the “solubility change mitosis (log2)” value in series [1] was -0.142. Besides, the values for the thermal stability score in series [2] (setting [5]) and in series [2] (cell cycle stage: mitosis) were 1.13 and 1.4, respectively. For the same sequence, in series [3], the “solubility in G1/S (log2)” value is -0.0625. The melting temperature in series [4] (cell cycle stage: G1/S) and in series [4] (cell cycle stage: mitosis) was 49.4 °C throughout.

Turning to “MLAVHFDKPGGPENLYVKEVAKPSPGEGEVLLKVAASALNRADLMQRQGQYDPPPGASNILGLEASGHVAELGPGCQGHWKIGDTAMALLPGGGQAQYVTVPEGLLMPIPEGLTLTQAAAIPEAWLTAFQLLHLVGNVQAGDYVLIHAGLSGVGTAAIQLTRMAGAIPLVTAGSQKKLQMAEKLGAAAGFNYKKEDFSEATLKFTKGAGVNLILDCIGGSYWEKNVNCLALDGRWVLYGLMGGGDINGPLFSKLLFKRGSLITSLLRSRDNKYKQMLVNAFTEQILPHFSTEGPQRLLPVLDRIYPVTEIQEAHKYMEANKNIGKIVLELPQ [TP53I3]”, the “solubility change mitosis (log2)” value in series [1] is -0.199. The thermal stability score in series [2] (setting [5]) was -2.64; in series [2] (cell cycle stage: mitosis), -1.51. In addition, the “solubility in G1/S (log2)” value in series [3] is 0.373. Moreover, the melting temperature was determined as 58.7 °C in series [4] (cell cycle stage: G1/S) and 57.3 °C in series [4] (cell cycle stage: mitosis).

For the sequence “MLCWGNASFGQLGLGGIDEEIVLEPRKSDFFINKRVRDVGCGLRHTVFVLDDGTVYTCGCNDLGQLGHEKSRKKPEQVVALDAQNIVAVSCGEAHTLALNDKGQVYAWGLDSDGQLGLVGSEECIRVPRNIKSLSDIQIVQVACGYYHSLALSKASEVFCWGQNKYGQLGLGTDCKKQTSPQLLKSLLGIPFMQVAAGGAHSFVLTLSGAIFGWGRNKFGQLGLNDENDRYVPNLLKSLRSQKIVYICCGEDHTAALTKEGGVFTFGAGGYGQLGHNSTSHEINPRKVFELMGSIVTEIACGRQHTSAFVPSSGRIYSFGLGGNGQLGTGSTSNRKSPFTVKGNWYPYNGQCLPDIDSEEYFCVKRIFSGGDQSFSHYSSPQNCGPPDDFRCPNPTKQIWTVNEALIQKWLSYPSGRFPVEIANEIDGTFSSSGCLNGSFLAVSNDDHYRTGTRFSGVDMNAARLLFHKLIQPDHPQISQQVAASLEKNLIPKLTSSLPDVEALRFYLTLPECPLMSDSNNFTTIAIPFGTALVNLEKAPLKVLENWWSVLEPPLFLKIVELFKEVVVHLLKLYKIGIPPSERRIFNSFLHTALKVLEILHRVNEKMGQIIQYDKFYIHEVQELIDIRNDYINWVQQQAYGMDVNHGLTELADIPVTICTYPFVFDAQAKTTLLQTDAVLQMQMAIDQAHRQNVSSLFLPVIESVNPCLILVVRRENIVGDAMEVLRKTKNIDYKKPLKVIFVGEDAVDAGGVRKEFFLLIMRELLDPKYGMFRYYEDSRLIWFSDKTFEDSDLFHLIGVICGLAIYNCTIVDLHFPLALYKKLLKKKPSLDDLKELMPDVGRSMQQLLDYPEDDIEETFCLNFTITVENFGATEVKELVLNGADTAVNKQNRQEFVDAYVDYIFNKSVASLFDAFHAGFHKVCGGKVLLLFQPNELQAMVIGNTNYDWKELEKNTEYKGEYWAEHPTIKIFWEVFHELPLEKKKQFLLFLTGSDRIPILGMKSLKLVIQSTGGGEEYLPVSHTCFNLLDLPKYTEKETLRSKLIQAIDHNEGFSLI [HERC4]”, the “solubility change mitosis (log2)” value in series [1] is -0.179. Besides, the values for the thermal stability score in series [2] (setting [5]) and in series [2] (cell cycle stage: mitosis) were -0.179 and -0.361, respectively. The “solubility in G1/S (log2)” value in series [3] was -0.169. Also, the melting temperature is 51.4 °C in series [4] (cell cycle stage: G1/S) and 51 °C in series [4] (cell cycle stage: mitosis).

Take “MLDFAIFAVTFLLALVGAVLYLYPASRQAAGIPGITPTEEKDGNLPDIVNSGSLHEFLVNLHERYGPVVSFWFGRRLVVSLGTVDVLKQHINPNKTSDPFETMLKSLLRYQSGGGSVSENHMRKKLYENGVTDSLKSNFALLLKLSEELLDKWLSYPETQHVPLSQHMLGFAMKSVTQMVMGSTFEDDQEVIRFQKNHGTVWSEIGKGFLDGSLDKNMTRKKQYEDALMQLESVLRNIIKERKGRNFSQHIFIDSLVQGNLNDQQILEDSMIFSLASCIITAKLCTWAICFLTTSEEVQKKLYEEINQVFGNGPVTPEKIEQLRYCQHVLCETVRTAKLTPVSAQLQDIEGKIDRFIIPRETLVLYALGVVLQDPNTWPSPHKFDPDRFDDELVMKTFSSLGFSGTQECPELRFAYMVTTVLLSVLVKRLHLLSVEGQVIETKYELVTSSREEAWITVSKRY [CYP20A1]”: the “solubility change mitosis (log2)” value in series [1] was -0.0969. In addition, the thermal stability score is 0.229 in series [2] (setting [5]) and -1.11 in series [2] (cell cycle stage: mitosis). Further, the “solubility in G1/S (log2)” value in series [3] is -0.178. Moreover, the values for the melting temperature in series [4] (cell cycle stage: G1/S) and in series [4] (cell cycle stage: mitosis) were 54.4 °C and 55.1 °C, respectively.
